Measured values published in article PMC10653093.

Molecular target: Recombinant human heterodimeric S100A8/A9 (human) (UniProt P05109)
Assay: ELISA

Sequence of UniProt P05109 (P05109 whole entry, chain 1 of 2): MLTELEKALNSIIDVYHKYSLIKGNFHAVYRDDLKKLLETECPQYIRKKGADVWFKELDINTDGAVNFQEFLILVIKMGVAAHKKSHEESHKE
Sequence of UniProt P05109 (P06702 whole entry, chain 2 of 2, further chain): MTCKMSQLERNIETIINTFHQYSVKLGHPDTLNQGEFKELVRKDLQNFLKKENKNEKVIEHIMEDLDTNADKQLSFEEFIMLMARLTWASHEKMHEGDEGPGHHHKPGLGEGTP

Q: Which EC50 does the source give for “recombinant soluble GPIbα (His-17-Leu505) (domain or fragment)” here?
A: Its EC50 is 130 nM.
